Results taken from patent publication US20230242592A1, “IDENTIFICATION OF […] PEPTIDES AND USES THEREOF” (priority 2020, published 2023).

What was measured:
[1] = tested on: SARS-CoV-2 spike protein pseudotyped lentivirus; assay: SARS-CoV-2 spike pseudotyped lentivirus infection of ACE2-HEK293 cells (luciferase); format: cell-based; settings: 0.33 uM
[2] = molecular target: SARS-CoV-2 spike RBD (Severe acute respiratory syndrome coronavirus 2, UniProt P0DTC2)
[3] = molecular target: interaction between RBD and the neutralizing antibody (Severe acute respiratory syndrome coronavirus 2, UniProt P0DTC2); settings: read-out: IC50 of inhibiting interaction between RBD and the neutralizing antibody
[4] = tested on: ACE2-HEK293 cells; assay: Trypan blue toxicity in ACE2-HEK293 cells in the presence of virus; settings: different concentrations; viability ca. 50%

Substance: ACE2
- inhibition of pseudotyped virus infection [1]: virtually complete inhibition
- RMax, binding to RBD [2]: 0.5785 ± 0.01557
- Kd ([2]; read-out: dissociation constant / binding affinity with RBD): ~3 nM
- IC50 [3]: 30 to 35 nM
- change in cell viability in the presence of virus [4]: did not result in statistically significant changes in cell viability
